# Reference: patent publication US20170143843A1 (Genentech, published 2017)
# Assays:
# human factor D [1] = target: T1, human factor D (human, UniProt P00746 26-253); assay: cell-based or functional assay
# human factor D [2] = target: T1, human factor D; assay: SPR Biacore T200, Fab captured by anti-huFab, human fD injected, 25 C
# Description: Antibody Fab fragments were immobilized on a Series S CM5 sensor chip using the anti-huFab capture kit (GE healthcare Cat. #28-9583-25) following a protocol described by the manufacturer. Kinetics of binding were calculated from sensorgrams recorded for injection of 60 μL aliquots of solutions of human factor D varied in concentration from 0.39 nM to 25 nM in 2-fold increments. The flow rate was 30 μL/minute, the running buffer was HBS-P+, the temperature of analysis was 25° C., real-time reference cell subtraction was employed, and dissociation following factor D injection was followed for 10 minutes. After subtraction of the sensorgram observed for injection of running buffer, data were analyzed according to a 1:1 model using BiaEval software v4.1 (GE Healthcare) to extract the kinetics and affinity constants.
# human factor D [3] = target: T1, human factor D; assay: cell-based or functional assay; remark: listed apart in the source
# human factor D [4] = target: T1, human factor D; assay: SPR total binding to fD over time; Fab 100 mg/mL in PBS, 37 C, 10 weeks (FIG. 2B)
# human factor D [5] = target: T1, human factor D; assay: cell-based or functional assay; remark: listed apart in the source
# human factor D [6] = target: T1, human factor D; assay: SPR total binding to fD over time; Fab 10 mg/mL in pH 5.5 buffer (FIG. 2A), one month
# T1 sequence (P00746 26-253 limits assumed): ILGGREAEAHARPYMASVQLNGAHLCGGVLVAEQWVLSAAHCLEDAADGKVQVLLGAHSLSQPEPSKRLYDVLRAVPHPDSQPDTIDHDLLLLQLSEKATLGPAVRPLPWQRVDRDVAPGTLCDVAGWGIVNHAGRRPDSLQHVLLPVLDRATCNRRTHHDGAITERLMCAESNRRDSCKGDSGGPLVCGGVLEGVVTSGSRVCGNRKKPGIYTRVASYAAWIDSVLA
binder,measurement,setting,value
"AFD.v8 (SIESD; VL-D28S:D30E:D31S VH-D62E) (Fab, V domains shown, Fab; also called SIESD (AFD.v8)) VH: EVQLVQSGPELKKPGASVKVSCKASGYTFTNYGMNWVRQAPGQGLEWMGWINTYTGETTYAEDFKGRFVFSLDTSVSTAYLQISSLKAEDTAVYYCEREGGVNNWGQGTLVTVSS VL: DIQVTQSPSSLSASVGDRVTITCITSTSIESDMNWYQQKPGKVPKLLISGGNTLRPGVPSRFSGSGSGTDFTLTISSLQPEDVATYYCLQSDSLPYTFGQGTKVEIKR","IC50 (nM) AP Hemolysis (rabbit erythrocytes, C1q-depleted human serum)",human factor D [1],4.2 nM
same,Kd,human factor D [2],0.0167 nM
same,"Average IC50 fB Activation (pM), TR-FRET, 50 pM fD",human factor D [3],27.6 pM
"AFD.v11 (VL-D28S:D30E:D31S VH-D62E VH-N52S) (Fab, V domains shown, Fab variant of aFD.WT; also called SIESD + VH-N52S) VH: EVQLVQSGPELKKPGASVKVSCKASGYTFTNYGMNWVRQAPGQGLEWMGWISTYTGETTYAEDFKGRFVFSLDTSVSTAYLQISSLKAEDTAVYYCEREGGVNNWGQGTLVTVSS VL: DIQVTQSPSSLSASVGDRVTITCITSTSIESDMNWYQQKPGKVPKLLISGGNTLRPGVPSRFSGSGSGTDFTLTISSLQPEDVATYYCLQSDSLPYTFGQGTKVEIKR",Kd,human factor D [2],0.07 nM
"AFD.v3 (VL-D31S) (Fab, V domains shown, Fab variant of aFD.WT) VH: EVQLVQSGPELKKPGASVKVSCKASGYTFTNYGMNWVRQAPGQGLEWMGWINTYTGETTYADDFKGRFVFSLDTSVSTAYLQISSLKAEDTAVYYCEREGGVNNWGQGTLVTVSS VL: DIQVTQSPSSLSASVGDRVTITCITSTDIDSDMNWYQQKPGKVPKLLISGGNTLRPGVPSRFSGSGSGTDFTLTISSLQPEDVATYYCLQSDSLPYTFGQGTKVEIKR",Kd,human factor D [2],≤ 0.01 nM
"AFD.v5 (VL-D28S:D31S:D32S) (Fab, V domains shown, Fab variant of aFD.WT) VH: EVQLVQSGPELKKPGASVKVSCKASGYTFTNYGMNWVRQAPGQGLEWMGWINTYTGETTYADDFKGRFVFSLDTSVSTAYLQISSLKAEDTAVYYCEREGGVNNWGQGTLVTVSS VL: DIQVTQSPSSLSASVGDRVTITCITSTSIDSSMNWYQQKPGKVPKLLISGGNTLRPGVPSRFSGSGSGTDFTLTISSLQPEDVATYYCLQSDSLPYTFGQGTKVEIKR",Kd,human factor D [2],0.28 nM
"AFD.v13 (SIESD.N103Q; VL-D28S:D30E:D31S VH-D62E VH-N103Q) (Fab, V domains shown, Fab variant of aFD.WT) VH: EVQLVQSGPELKKPGASVKVSCKASGYTFTNYGMNWVRQAPGQGLEWMGWINTYTGETTYAEDFKGRFVFSLDTSVSTAYLQISSLKAEDTAVYYCEREGGVQNWGQGTLVTVSS VL: DIQVTQSPSSLSASVGDRVTITCITSTSIESDMNWYQQKPGKVPKLLISGGNTLRPGVPSRFSGSGSGTDFTLTISSLQPEDVATYYCLQSDSLPYTFGQGTKVEIKR",Kd,human factor D [2],0.06 nM
"AFD.v14 (SIESD.N103S; VL-D28S:D30E:D31S VH-D62E VH-N103S) (Fab, V domains shown, Fab; also called SIESD.N103S (AFD.v14); AFD.14) VH: EVQLVQSGPELKKPGASVKVSCKASGYTFTNYGMNWVRQAPGQGLEWMGWINTYTGETTYAEDFKGRFVFSLDTSVSTAYLQISSLKAEDTAVYYCEREGGVSNWGQGTLVTVSS VL: DIQVTQSPSSLSASVGDRVTITCITSTSIESDMNWYQQKPGKVPKLLISGGNTLRPGVPSRFSGSGSGTDFTLTISSLQPEDVATYYCLQSDSLPYTFGQGTKVEIKR",loss in binding,human factor D [4],10%
same,"Average IC50 fB Activation (pM), TR-FRET, 125 pM fD",human factor D [5],87 pM
same,"IC50 (nM) AP Hemolysis (rabbit erythrocytes, C1q-depleted human serum)",human factor D [1],4.1 nM
same,Kd,human factor D [2],0.0256 nM
same,"Average IC50 fB Activation (pM), TR-FRET, 50 pM fD",human factor D [3],34 pM
"AFD.v4 (VL-D32S) (Fab, V domains shown, Fab variant of aFD.WT) VH: EVQLVQSGPELKKPGASVKVSCKASGYTFTNYGMNWVRQAPGQGLEWMGWINTYTGETTYADDFKGRFVFSLDTSVSTAYLQISSLKAEDTAVYYCEREGGVNNWGQGTLVTVSS VL: DIQVTQSPSSLSASVGDRVTITCITSTDIDDSMNWYQQKPGKVPKLLISGGNTLRPGVPSRFSGSGSGTDFTLTISSLQPEDVATYYCLQSDSLPYTFGQGTKVEIKR",Kd,human factor D [2],0.026 nM
"AFD.v12 (SIESD.N103D; VL-D28S:D30E:D31S VH-D62E VH-N103D) (Fab, V domains shown, Fab variant of aFD.WT) VH: EVQLVQSGPELKKPGASVKVSCKASGYTFTNYGMNWVRQAPGQGLEWMGWINTYTGETTYAEDFKGRFVFSLDTSVSTAYLQISSLKAEDTAVYYCEREGGVDNWGQGTLVTVSS VL: DIQVTQSPSSLSASVGDRVTITCITSTSIESDMNWYQQKPGKVPKLLISGGNTLRPGVPSRFSGSGSGTDFTLTISSLQPEDVATYYCLQSDSLPYTFGQGTKVEIKR",Kd,human factor D [2],0.023 nM
"AFD.v2 (VL-D30E) (Fab, V domains shown, Fab variant of aFD.WT; also called D30E (AFD.v2)) VH: EVQLVQSGPELKKPGASVKVSCKASGYTFTNYGMNWVRQAPGQGLEWMGWINTYTGETTYADDFKGRFVFSLDTSVSTAYLQISSLKAEDTAVYYCEREGGVNNWGQGTLVTVSS VL: DIQVTQSPSSLSASVGDRVTITCITSTDIEDDMNWYQQKPGKVPKLLISGGNTLRPGVPSRFSGSGSGTDFTLTISSLQPEDVATYYCLQSDSLPYTFGQGTKVEIKR",loss in binding,human factor D [4],~20%
same,loss in binding,human factor D [6],~40%
same,Kd,human factor D [2],≤ 0.01 nM
